Results: article PMC11775670

biological target: PksD (Bacillus subtilis str. 168) (UniProt O34877); details: scale: % relative to the acetyl-PksJ ACP4 domain
UniProt O34877, sequence (O34877 whole entry, the tested form may be a part): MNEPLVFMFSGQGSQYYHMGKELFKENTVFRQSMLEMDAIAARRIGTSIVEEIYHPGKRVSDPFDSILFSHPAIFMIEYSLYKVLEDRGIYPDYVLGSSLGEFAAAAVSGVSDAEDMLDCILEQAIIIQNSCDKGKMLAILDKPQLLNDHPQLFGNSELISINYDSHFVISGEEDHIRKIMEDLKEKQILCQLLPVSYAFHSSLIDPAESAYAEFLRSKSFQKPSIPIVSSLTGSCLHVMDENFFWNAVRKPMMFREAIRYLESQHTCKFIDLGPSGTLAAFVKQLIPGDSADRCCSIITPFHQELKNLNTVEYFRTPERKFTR

Question: With “acetyl-loaded BlmVIII ACP7 domain (domain or fragment)” as the substance, how does the acetyl group hydrolysis by PksD relative to the acetyl-PksJ ACP4 domain, intact protein-MS read?
Answer: 12

Question: How did the acetyl group hydrolysis by PksD relative to the acetyl-PksJ ACP4 domain, intact protein-MS turn out when “acetyl-loaded GbnD5 ACP12 domain (domain or fragment)” was run?
Answer: 41

Question: How did the acetyl group hydrolysis by PksD relative to the acetyl-PksJ ACP4 domain, intact protein-MS turn out when “acetyl-loaded IcoA PCP2 domain (domain or fragment)” was run?
Answer: 7
